These results are taken from publication PMC7713262, “Synthesis of high-titer alka(e)nes in Yarrowia lipolytica is enabled by a discovered mechanism” (Nature Communications, 2020).

Substrate in series [1]: CCCCCCCCCCCCCCCCCC(=O)SCCNC(=O)CCNC(=O)[C@H](O)C(C)(C)COP(=O)(O)OP(=O)(O)OC[C@H]1O[C@@H](n2cnc3c(N)ncnc32)[C@H](O)[C@@H]1OP(=O)(O)O
As to the kind of experiment: heptadecane formation by GC-FID; Eadie-Hofstee plot. Type of series: biochemical, Chlorella variabilis. As to conditions: blue light, 20 h, 25 °C, 50 mM Tris-HCl pH 8.5, 30 vol% DMSO, lithium salt, kcat unit doubtful (Vmax 3.22 μM/h).

Substrate in series [2]: CCCCCCCCCCCCCCCCCC(=O)O
The description is as above. Format: biochemical, Chlorella variabilis. As to conditions: blue light, 20 h, 25 °C, 50 mM Tris-HCl pH 8.5, 30 vol% DMSO, lithium salt, kcat unit doubtful (Vmax 2.83 μM/h).

B1: CvFAP (fatty acid photodecarboxylase) (Chlorella variabilis) (protein)
chain: SAVEDIRKVLSDSSSPVAGQKYDYILVGGGTAACVLANRLSADGSKRVLVLEAGPDNTSRDVKIPAAITRLFRSPLDWNLFSELQEQLAERQIYMARGRLLGGSSATNATLYHRGAAGDYDAWGVEGWSSEDVLSWFVQAETNADFGPGAYHGSGGPMRVENPRYTNKQLHTAFFKAAEEVGLTPNSDFNDWSHDHAGYGTFQVMQDKGTRADMYRQYLKPVLGRRNLQVLTGAAVTKVNIDQAAGKAQALGVEFSTDGPTGERLSAELAPGGEVIMCAGAVHTPFLLKHSGVGPSAELKEFGIPVVSNLAGVGQNLQDQPACLTAAPVKEKYDGIAISDHIYNEKGQIRKRAIASYLLGGRGGLTSTGCDRGAFVRTAGQALPDLQVRFVPGMALDPDGVSTYVRFAKFQSQGLKWPSGITMQLIACRPQSTGSVGLKSADPFAPPKLSPGYLTDKDGADLATLRKGIHWARDVARSSALSEYLDGELFPGSGVVSDDQIDEYIRRSIHSSNAITGTCKMGNAGDSSSVVDNQLRVHGVEGLRVVDASVVPKIPGGQTGAPVVMIAERAAALLTGKATIGASAAAPATVAA
notes: codon-optimised gene, C-terminal 6xHis tag (3'-terminus), pET28, E. coli BL21(DE3), Ni-NTA purified
As for B1, the Km in series [1] came out at 75.30 µM. Besides, in series [2], the Michaelis constant (Km) was found to be 108.31 µM and the kcat amounted to 979.62 s⁻¹.

As a reminder, the Km is the concentration of substrate that gives half-maximal velocity. What is called kcat is the number of substrate molecules converted per active site and unit of time at saturation.
